Series [1] is described as follows: Enzymatic activity of purified Lcc35. Type of series: biochemical. The following applies: isolated as in Example 1; culture with 1 mM 4-hydroxybenzoic acid. As to the method:
To isolate the laccase from R. microporus BCRC 35318, eight-day-old mycelial disks (8 mm in diameter) collected from the PDA plate mentioned above were inoculated into a basal medium containing (per liter) 10 g glucose, 0.22 g ammonium tartrate, 0.9 g K2HPO4, 0.1 g KH2PO4, 0.05 g MgSO4.7H2O, 0.5 g CaCl2, 0.01 g Thiamine HCl, and 10 ml solution (0.08 g CuSO4.5H2O, 0.07 g MnSO4.4H2O, 4.3 g ZnSO4.7H2O and 0.05 g FeSO4.7H2O per liter). The pH of the medium was adjusted to 5.5. After being cultured for 10 days at 30° C. in a rotary shaker with a speed setting of 125 rpm, the supernatant of the fungal culture thus obtained was collected and passed through a […] filter (Nalgene) to remove fungal cells. The filtrate was mixed with 100% ammonium sulfate for protein precipitation. The precipitated proteins were dissolved in 40 ml of a 10 mM sodium acetate buffer (pH 6.0) and the resultant solution was dialyzed against the same acetate buffer overnight to remove co-precipitated ammonium sulfate and then concentrated to 4 ml by ultracentrifugal filteration with a molecular cutoff of 10 kDa (Amicon).
See Cambria et al., Protein Expr. Purif. 2000, 18, (2), 141-147; and Liu et al., Appl. Microbiol. Biotechnol. 2003, 63, (2), 174-181. Following the isolation process described in Example 1 above, purified Lcc35 was obtained with a recovery rate of about 55% and an enzymatic activity of 289.8 U/ml.

Series [2] can be described thus: Laccase activity at various temperatures. Type of series: biochemical. The following applies: ABTS substrate, sodium acetate buffer pH 5.0, 1 minute, 25-90° C. As to the method:
The laccase activity of Lcc35 was determined at various temperatures (i.e., ranging from 25-90° C.), using ABST as the substrate. The Lcc35-containing solution was incubated with ABST and a sodium acetate buffer (pH 5.0) for 1 minute and the enzymatic activity was examined afterwards.

Series [3] can be described thus: Laccase activity under various pH conditions, SGZ substrate. Type of series: biochemical. The following applies: 30° C., 1 min. As to the method: (§1) Next, the laccase activities of Lcc35 under various pH conditions were determined, following the method described in Lu et al., Appl. Microbiol. Biotechnol., 2007, 74, (6), 1232-1239. 0.01 ml of the Lcc35-containing solution was mixed with (i) 0.49 ml of a 50 mM reaction buffer of glycine-HCl (pH 2.0 to 3.0), sodium acetate (pH 4.0 to 6.0), or sodium phosphate (pH 7.0 to 8.0) and (ii) 0.5 ml of a substrate solution containing 2 mM ABTS, 1 mM [N,N′-bis(3,5-dimethoxy-4-hydroxybenzylidene)hydrazine] (SGZ), or 0.04% RBBR. After being incubated at 30° C. for 1 min (when ABST or SGZ was the substrate) or for 4 hours (when RBBR was the substrate), each of the reaction mixtures was examined with a spectrophotometer to determine its optical density at 420 nm (when ABST was the substrate), at 530 nm (when SGZ was the substrate), or at 585 nm (when RBBR was the substrate). One unit of laccase activity was defined as the amount of Lcc35 that oxidized 1 μmol substrate per min.

Series [4] is described as follows: Activity comparison with T. versicolor laccase, SGZ assay. Type of series: biochemical. The following applies: SGZ substrate; laccase amount by SDS-PAGE and ImageQuant TL 7.0. As to the method:
as §1
(§2) The laccase activity of Lcc35 was compared with Trametes versicolor laccase (provided by Fluka Co.), using either ABST or SGZ as the substrate according to the methods described above.

Series [5] can be described thus: Laccase activity under various pH conditions, ABTS substrate. The following applies: 30° C., 1 min. Type of series: biochemical. As to the method:
as §1

Series [6] can be described thus: Isoelectric focusing with PhastGel IEF 3-9. Type of series: physicochemical. As to the method: First, the isoelectric focusing point of Lcc35 was determined with PhastGel IEF 3-9 (GE Healthcare), following the method described in Hackler et al., Anal. Biochem. 1995, 230, (2), 281-289. Briefly, the Lcc35-containing solution mentioned above was loaded on a PhastGel IEF 3-9 gel.

Series [7] can be described thus: Activity comparison with T. versicolor laccase, ABTS assay. Type of series: biochemical. As to the method: as §1, §2
Series [8] in a line: Optimal pH with artificial lignin on agar micro-titer plate. Type of series: biochemical. The following applies: 0.1% lignin substrate, 30° C., 4 hr. As to the method:
The optimal pH of Lcc35 was also examined using an artificial lignin as a substrate, as follows. Each of the reaction buffers listed above was mixed with 0.1% lignin (Sigma #471003) and the mixture was placed in wells of an agar micro-titter plate. 10 μl of the Lcc35-containing suspension was placed at the center of each well. The agar plate was incubated at 30° C. for 4 hr to allow degradation of the artificial lignin by Lcc35.

Series [9] in a line: ABTS overlay activity assay on basic-native PAGE gel. Type of series: biochemical. The following applies: ABTS reaction buffer 1 mM, pH 3, room temperature. As to the method:
The laccase activity of this 55kDa protein was determined by an [2,2-azinobis(3-ethylbenzathiazoline-6-sulfonic acid)] (ABTS) overlay activity assay. See Lebendiker M BASIC-NATIVE GEL Protocol, wolfson.huji.ac.il/purification/Protocols/PAGE_Basic.html. A basic-native PAGE gel containing the 55 kDa protein was incubated in an ABTS reaction buffer (1 mM, pH 3) at room temperature.

A short description of a further series: pH stability of Lcc35. Type of series: physicochemical. The following applies: incubated at 30° C. for 20 hours, ABTS substrate. As to the method:
The Lcc35 solution was incubated under various pH conditions at 30° C. 20 hours later, the laccase activity in the solution was determined, using ABST as the substrate.

A short description of series [10]: Laccase activity under various pH conditions, RBBR de-colorization. Type of series: biochemical. The following applies: RBBR substrate, 30° C., 4 hours. As to the method:
as §1

Series [11] can be described thus: Thermal stability of Lcc35. The following applies: pH 6.0, 30-70° C. for 10, 30 or 60 minutes. Type of series: physicochemical. As to the method: To determine thermal stability of Lcc35, the enzyme solution was incubated under pH 6.0 at various temperatures (i.e., 30° C., 40° C., 50° C., 60° C., and 70° C.) for 10, 30, or 60 minutes.

B1: Lcc35: novel laccase isolated from R. microporus BCRC 35318; mature form SEQ ID NO:1, precursor SEQ ID NO:2 (protein)
chain: SVGPVADIPIVNANLSPDGFTRTTVLAGGTFPGPLIVGNKGDNFKLNVVDQLTDANQLKTTTIHWHGFFQHGTNWADGPAFVNQCPIASGNSFLYDFSAADQAGTFWYHSHLSTQYCDGLRGAFVVYDPSDPNASLYDVDNESTVITLADWYHTLARLGARFPTPDSTLINGLGRFAGGPASDLSVITVESGKRYRFRLVSISCDPNYTFSIDGHDMTIIEVNGINHDALSVDSIQIFAGQRYSFVLNANQAVGNYWIRANPNIGTRGFSGGINSAILRYVGADAVEPTTSQGTSTKPLVETNLHPSQNPGAVGSPTPGGVDLALNLALGFAGGSFTINGATFTSPTVPVLLQILSGAQSATDLLPSGSVFTLPGDSTIEISMPAGVAGGPHPFHLHGHAFDVVRASGSSTYNYANPVRRDVVSLGAAGDNVTIRFKTDNPGPWFLHCHIDWHLEAGLAIVFAEDTPNTAAINPVPQAWSDLCPIYNALAESDH
modifications: RIGIDOPORUS MICROPORUS
As to B1, the “enzymatic activity of purified Lcc35” value in series [1] came out at 289.8 U/ml. The “temperature of highest laccase activity” value in series [2] came to 70 °C. In addition, the “pH of highest laccase activity” value in [3] is 5-6; in series [5], 3-5; in series [8] it was 5-6; in [10], 5-6. The “SGZ assay, laccase-specific activity” value in series [4] is 1700 U mg^−1. This molecule displayed a pI value in series [6] of 3.98. Further, the “laccase-specific activity relative to T. versicolor laccase” value in series [7] (ABTS or SGZ as the substrate) is on record as 2-3 fold. Further, the “ABTS assay, laccase-specific activity” value in series [7] (ABTS substrate, laccase amount by SDS-PAGE and ImageQuant TL 7.0) was 3800 U mg^−1. Moreover, the “laccase activity (color change around the 55 kDa band)” value in series [9] is “high laccase activity”. Also, the “pH at which Lcc35 was more stable” value in the series “pH stability of Lcc35” stood at 6. Besides, the “temperature below which Lcc35 was stable” value in [11] was “below 50 °C”.
